“And” between values parts separate entries of the source, which are not always exact repeats. Equal values may be shown once.
Tests used:
[1] = biological target: integrin αIIb peptide (Homo sapiens) (UniProt P08514); test: SPR; conditions: cited from earlier work
[2] = biological target: T1, human CIB2 (Homo sapiens, UniProt O75838); test: SPR interaction of α7B peptides with immobilized CIB2; type: binding; conditions: His-CIB2 capture (7.5 µM peptide, or 230 nM–30 μM) and amine-coupled untagged CIB2 (7.5–30 µM); 1 mM Mg^2+, 2 mM Ca^2+; experiments repeated 4 times
T1 construct: made in house
T1 sequence (O75838 1-187): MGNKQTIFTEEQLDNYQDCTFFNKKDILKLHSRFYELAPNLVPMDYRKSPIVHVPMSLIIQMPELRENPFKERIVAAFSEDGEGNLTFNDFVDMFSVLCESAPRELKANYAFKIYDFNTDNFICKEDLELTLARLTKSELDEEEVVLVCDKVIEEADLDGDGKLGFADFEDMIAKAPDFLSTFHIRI
Source text: SPR was also used to study quantitatively the interaction of CIB2 with one of its established targets, namely the cytoplasmic domain of integrin α7B[3],[7]. Three different peptides were used in the interaction experiments. A peptide corresponding to the membrane proximal segment of the cytoplasmic domain of α7B integrin (α7B_M), another peptide with the same amino acid content, but randomized sequence (α7B_Scrb) and a peptide covering the C-terminal region of the cytoplasmic domain of α7B integrin (α7B_C). Three different approaches were used. In a first approach, His-tagged CIB2 was initially coupled to the surface of a His-cap sensor chip (see Methods), thus ensuring homogeneous site-specific orientation, and then blocked via standard amine coupling. […] The minor differences in the spectra at the level of the phenylalanine band can be ascribed to the TEV-protease recognition site (ENLYFQ), uncleaved in the His-tagged protein. […] In a third approach, we used the same low levels of CIB2 immobilization via amine coupling described in the experiments to probe CIB2 dimerization (100–200 RU) and flowed the three peptides.
The second approach (direct peptide immobilization) led to very low signals and unreproducible results and was not pursued any further. […] In spite of such differences, which might reflect both the heterogeneity of the surface and the different chemistry of immobilization, interaction results were consistent with one another. […] It should be noted that both Huang et al.[7] and Häger et al.[3] used peptides from mouse integrin, while we used the corresponding human sequences, which in the case of α7B_C lacks the tryptophan residue present in the mouse sequence. It is not uncommon that fluorescence spectroscopy interaction studies based on the peptide intrinsic fluorescence (CIB2 has no tryptophan residue) reveal some non-specific binding, especially when a highly hydrophobic protein such as CIB2 is the ligand. […] It cannot be excluded that a similar phenomenon occurred for murine α7B_C in the work by Häger et al.[3]. Our present results, based on accurate, label-free interaction studies clearly identify the region covered by α7B_M as the preferential binding site of CIB2 with α7B integrin.
SPR titrations of α7B_M over homogeneously coupled CIB2 (approach 1) gave very reproducible results and were performed both in the presence of 1 mM Mg^2+ and in the co-presence of 1 mM Mg^2+ and 2 mM Ca^2+. Peptide concentration was varied in the 230 nM–30 μM range. As anticipated, sensorgrams could not fit to a 1:1 binding model, and the kinetic model that better fit the data was a bivalent analyte model (see Methods), in which one α7B_M peptide could bind to two CIB2 molecules. According to this scheme, binding of the peptide to the first CIB2 molecule would direct the binding to the second one, thus resulting in two sets of kinetic constants.
Details of the protein and peptide immobilization procedures and experimental settings are elucidated in the Supplementary Information.
Kinetic data were fitted according to a bivalent analyte model, were a CIB2 monomer (L) can bind an α7B_M peptide (A), and the resulting complex (AL) can bind to a second CIB2 molecule (AL2), with all processes being possibly reversible, as follows: A+L→ka1ALAL→kd1A+LAL+L→ka2AL2AL2→kd2AL+L […]

[3] = biological target: T1, human CIB2; test: Cross-linking (DSBU)/MALDI-TOF-MS of CIB2 with α7B peptides; type: binding; conditions: 10 µM CIB2, 5, 10, 20 µM peptide, 50-fold DSBU; 20 mM HEPES pH 7.5, 1 mM Mg^2+, 2 mM Ca^2+, room temperature
Experimental: CIB2 samples were cross-linked with DSBU in the presence of peptide α7B_M or α7B_Scrb as described in ref.[14] Briefly, 10 µM CIB2 was diluted in 20 mM HEPES, pH 7.5, 1 mM DTT, 1 mM Mg^2+ and 2 mM Ca^2+ and incubated with increasing peptide concentrations (5 µM, 10 µM, and 20 µM) for 10 min at room temperature. Then, 50-fold molar excess of DSBU was added and the reactions were conducted for 20 min at room temperature. As control, CIB2 was treated with DSBU without peptide. Reactions were blocked by adding ammonium bicarbonate to a final concentration of 20 mM.
Cross-linked CIB2 samples were desalted via ZipTip C4 tips (Millipore) before MALDI-TOF-MS analysis (Ultraflex III MALDI-TOF/TOF mass spectrometer, Bruker Daltonik, Bremen) was conducted using sinapinic acid as matrix. For further details see Supplementary Methods. Baseline subtraction and spectra smoothing were performed. […]
Cross-linking reactions and Mass Spectrometry
Cross-linking reactions were performed with 10 µM CIB2 (in 20 mM HEPES pH 7.5, 150 mM KCl, 1 mM DTT, 1 mM Mg2+, 2 mM Ca2+) and increasing concentrations of peptides α7B_M and α7B_Scrb, ranging from 0.5:1 to 2:1 peptide:protein ratios. After incubating the samples for 10 minutes at room temperature, DSBU (freshly prepared solution, dissolved in neat DMSO) was added to the mixture at 50-fold molar excess compared to CIB2 concentration. As the final volume of the reaction mixture was 50 µL, 1 µL of 25 mM DSBU was added to each sample. After 20 minutes, the cross-linking reactions were quenched by adding ammonium bicarbonate to a final concentration of 20 mM. Samples were incubated for 10 minutes before SDS-PAGE analysis was performed (data not shown). Samples for MALDI-TOF-MS measurements were desalted by ZipTip C4 (Millipore) and desalted protein was eluted with 70% (v/v) acetonitrile / 1% (v/v) formic acid. Each sample was mixed with a saturated solution of sinapinic acid (in 50% (v/v) methanol / 0.1% (v/v) TFA) at 1:1 ratio and spotted onto the MALDI target. […]

[4] = system: CIB2; conditions: peptide intrinsic fluorescence; cited from earlier work
Source text: In a recent study[8] we investigated the capability of CIB2 to bind Ca^2+ and Mg^2+ thereby switching to a functionally distinct structural state. By integrating several biochemical and biophysical techniques we could establish that in the absence of any cation CIB2 forms a molten globule state that essentially lacks tertiary structure. […] This is quite unusual for Ca^2+-sensor pro ... || The second approach (direct peptide immobilization) led to very low signals and unreproducible results and was not pursued any further. […] In spite of such differences, which might ... || Interaction with α7B occurs in the region proximal to the membrane and not close to the C-terminus of the cytosolic domain of the integrin. The recognition between CIB2 and the α7B target is kinetically favored in the presence of physiological Mg^2+ and in the absence of Ca^2+ and it might induce binding of another CIB2 molecule. […] However, CIB2 per se binds a single peptide as a monomer, and the complex could then induce CIB2 dimerization, ...

[5] = biological target: T2, Calcium- and Integrin-Binding protein 2 (CIB2), human, untagged (human, UniProt O75838 1-187); test: cross-linking; 10 µM CIB2 incubated with 5, 10 or 20 µM peptide, then 50-fold molar excess of DSBU for 20 min at room temperature; 20 mM HEPES pH 7.5, 1 mM DTT, 1 mM Mg2+, 2 mM Ca2+; read by MALDI-TOF-MS of the intact protein; conditions: both partners purified
T2 construct: measured mass 21,767 Da by native ESI-MS; The printed mass (21.7 kDa) fits the whole protein; Residues may remain after TEV cleavage of the His tag; also called untagged CIB2; uncoupled CIB2
T2 sequence (looked up): T1 sequence (O75838 1-187)

[6] = biological target: T3, His-tagged CIB2, human (TEV protease recognition site and His tag kept) (human, UniProt O75838 1-187); test: SPR; His-tagged CIB2 captured by its His tag on a His-cap chip, then blocked via amine coupling; α7B_M titrated 230 nM-30 µM in the presence of 1 mM Mg2+ without Ca2+; bivalent analyte model and steady state analysis; apparent constants; conditions: both partners purified
T3 construct: It was used only in the SPR experiments where CIB2 was captured by its His tag; also called His-CIB2
T3 sequence (looked up): T1 sequence (O75838 1-187)

[7] = biological target: T3, His-tagged CIB2, human (TEV protease …); test: SPR; His-tagged CIB2 captured by its His tag on a His-cap chip, then blocked via amine coupling; peptides injected (7.5 µM; α7B_M titrated 230 nM-30 µM); 20 mM HEPES pH 7.5, 150 mM KCl, 1 mM DTT, 1 mM Mg2+, 2 mM Ca2+, 50 µM EDTA, 0.005% Tween; bivalent analyte model and steady state analysis; apparent constants; conditions: both partners purified
[8] = biological target: integrin α7B peptide (Homo sapiens, UniProt Q13683, Mg2+ and Ca2+); test: SPR
[9] = biological target: integrin α7B peptide (Homo sapiens, UniProt Q13683, Mg2+); test: SPR
[10] = system: CIB2; test: Near-UV circular dichroism; type: physicochemical, human; conditions: 20-30 µM, 37 °C, EGTA, 1 mM Mg^2+, 2 mM Ca^2+; 20 mM HEPES pH 7.5
Experimental: CIB2 tertiary structure was investigated by using a Jasco J-710 spectropolarimeter equipped with a Peltier type cell holder as previously described. Briefly: near-UV (250–320 nm) CD spectra of 20 μM of sole CIB2 or CIB2/α7B_M complexes (1:1 and 1:2 ratios) were collected in the presence of 500 μM EGTA and after sequential additions of 1 mM Mg^2+ and 2 mM free Ca^2+. A 1 cm quartz cuvette was used, temperature was set at 37 °C, integration time and data pitch were set to 4 s and 1 nm, respectively. Each spectrum represents the average of 5 accumulations. […]
Figure S4: Structural comparison of His-CIB2 (A) and CIB2 (B). Near-UV CD spectra (250-320 nm) of 20-30 µM CIB2 were collected at 37°C in a quartz cuvette with 1 cm length path. Sequential additions of 500 µM EGTA (black), 1 mM Mg2+ (blue) and 2 mM Ca2+ (red) were performed. Near-UV CD spectra of the buffer (20 mM HEPES pH 7.5, 150 mM KCl, 1 mM DTT) was considered as blank and subtracted. Each spectrum represents the mean of 5 accumulations. Data were normalized according to the protein concentration and the number of residues (Molar Residue Ellipticity, MRE).
Figure S5: Near-UV CD spectra of CIB2 in the presence of different stoichiometric ratios of alpha7B_M peptide. Near-UV CD spectra (250-320nm) of 20 μM CIB2 in the absence of peptide (black lines) and in the presence of two different protein/peptide ratios (1:1 blue lines; 1:2 red lines) collected at 37°C in the presence of 500 μM EGTA (A) and after sequential additions of 1 mM Mg2+ (B) and 2 mM free Ca2+ (C). The spectrum of alpha7B_M peptide in the absence of CIB2 is shown in dashed grey lines. […]

Chain of integrin αIIb peptide (Homo sapiens) (P08514 1014-1039): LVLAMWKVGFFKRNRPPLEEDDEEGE

In the case of CIB1 (from UniProt Q99828), the Kd [1] is listed as 12 µM.

For KEFWGLHAKPRLKLMF [α7B_Scrb], the “SPR interaction with CIB2” value [2] is listed as “interact with low affinity”, the “CIB2/peptide complex formation, 1:1” value [3] is listed as “only minor signals for a 1:1 complex” and the “fluorescence titration of CIB2” value [4] is listed as “some non-specific signal”.

In the case of “LAADGHPELGPDGHPGPGTA [α7B_C, peptide covering the C-terminal region of the cytoplasmic domain of α7B integrin]”, the “SPR interaction with CIB2” value [2] is reported as “could not detect any interaction”.

B1: α7B_M peptide, membrane proximal segment of the cytoplasmic domain of α7B integrin (peptide)
peptide: Ac-LLLWKMGFFKRAKHPE-NH2
notes: integrin α7B, human, membrane proximal segment of the cytoplasmic domain; also called α7B peptide; source: synthetic peptide, bought: Genscript
For B1, the “stoichiometry N” value [5] was 1 peptide per CIB2 and 2 peptides per CIB2, the Kd [6] was 210 µM and the Kd [7] was 154 µM.

B2: CIB2 (protein)
chain: T1 sequence (O75838 1-187)
For B2, the Kd [8] was 25 µM and the Kd [9] was 11.6 µM.

B3: His-tagged CIB2: CIB2 with the TEV protease recognition site and the Histag kept (protein)
chain: T1 sequence (O75838 1-187)
modifications: left off: His tag, end not stated, kept | TEV protease recognition site (ENLYFQ), end not stated, kept
For B3, the “near-UV CD, tertiary structure vs untagged CIB2” value [10] was “substantially the same tertiary structure of the untagged protein”.
